From PMC11901735 (Molecules, 2025) come the findings set out here.

Broadly, the Kd is the constant that tells how readily two partners part at equilibrium.

The target in assay [1] is exendin-4 (UniProt P26349 48-87). In words: SPR; Biacore T200; recombinant human GLP-1R (0.5 μM) immobilized on a CM5 sensor chip; peptides injected at four-fold serial dilutions (0, 0.1-100 nM); n = 3; 1:1 interaction model. Particulars: both partners purified.
Assay [2] has as its target Ex-4-C40, exendin-4 with an additional Cys at the C-terminus (UniProt P26349 48-87). The description is as above. As to conditions: both partners purified.

B1: Recombinant human GLP-1R protein (receptor)
chain: RPQGATVSLWETVQKWREYRRQCQRSLTEDPPPATDLFCNRTFDEYACWPDGEPGSFVNVSCPWYLPWASSVPQGHVYRFCTAEGLWLQKDNSSLPWRDLSECEESKRGERSSPEEQLLFLY
modifications: Limits are not printed. The Sino Biological H02H catalogue suffix suggests a soluble extracellular domain with a C-terminal human Fc (left out). Residues 24-145 are the usual ectodomain construct …
With B1, the Kd in assay [1] came out at 0.0336 µM; in assay [2] it was 0.036 µM.
